# Columns and labels:
# Assay in all cases: holdup assay
# Set-up in all cases: key: below the threshold = too weak to quantify, mostly under pKd 3.1 to 4
# MAGI2_2, Q86UL8 = target: MAGI2_2, Q86UL8
# TX1BP3, O14907 = target: T1, TX1BP3, O14907
# T1 sequence (O14907 10-122, limits assumed, looked up): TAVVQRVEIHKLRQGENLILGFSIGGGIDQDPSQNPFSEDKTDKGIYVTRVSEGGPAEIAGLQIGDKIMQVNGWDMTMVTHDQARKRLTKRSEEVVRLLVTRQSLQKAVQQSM
# MPP2, Q14168 = target: T2, MPP2, Q14168
# T2 sequence (Q14168 180-250, limits assumed, looked up): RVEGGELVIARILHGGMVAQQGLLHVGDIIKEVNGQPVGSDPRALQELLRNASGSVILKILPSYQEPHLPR
# MAST2, Q6P0Q8 = target: MAST2, Q6P0Q8
# Sequence of MAST2, Q6P0Q8 (Q6P0Q8 1099-1202): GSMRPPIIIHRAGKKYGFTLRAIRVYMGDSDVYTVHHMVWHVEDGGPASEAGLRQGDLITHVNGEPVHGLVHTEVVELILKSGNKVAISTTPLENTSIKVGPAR
# LDB3, O75112 = target: LDB3, O75112
# Sequence of LDB3, O75112 (O75112 1-94): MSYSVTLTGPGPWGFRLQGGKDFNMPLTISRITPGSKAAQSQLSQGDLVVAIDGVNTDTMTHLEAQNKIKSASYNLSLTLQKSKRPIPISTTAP
# HTRA3, P83110 = target: T3, HTRA3, P83110
# T3 sequence (P83110 354-453, limits assumed, looked up): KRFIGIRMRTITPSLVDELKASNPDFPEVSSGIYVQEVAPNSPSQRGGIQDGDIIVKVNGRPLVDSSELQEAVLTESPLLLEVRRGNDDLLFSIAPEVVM
# GIPC2, Q8TF65 = target: GIPC2, Q8TF65
# Sequence of GIPC2, Q8TF65 (Q8TF65 112-203): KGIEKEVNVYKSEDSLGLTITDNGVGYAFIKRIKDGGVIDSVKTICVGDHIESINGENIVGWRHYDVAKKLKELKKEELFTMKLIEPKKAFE
# GRIP1_7, Q9Y3R0 = target: T4, GRIP1_7, Q9Y3R0
# T4 sequence (Q9Y3R0 999-1096, limits assumed, looked up): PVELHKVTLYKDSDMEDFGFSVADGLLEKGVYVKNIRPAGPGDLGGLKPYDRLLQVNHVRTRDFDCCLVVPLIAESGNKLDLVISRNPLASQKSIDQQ
# SCRIB_2, Q14160 = target: SCRIB_2, Q14160
# Sequence of SCRIB_2, Q14160 (Q14160 857-960): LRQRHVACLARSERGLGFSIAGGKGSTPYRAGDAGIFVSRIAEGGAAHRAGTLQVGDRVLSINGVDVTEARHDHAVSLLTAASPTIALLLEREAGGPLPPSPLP
# SCRIB_3, Q14160 = target: SCRIB_3, Q14160
# Sequence of SCRIB_3, Q14160 (Q14160 999-1103): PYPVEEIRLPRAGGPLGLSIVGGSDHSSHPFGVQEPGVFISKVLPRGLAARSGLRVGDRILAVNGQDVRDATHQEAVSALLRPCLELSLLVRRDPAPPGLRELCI
# MPP6, Q9NZW5 = target: T5, MPP6, Q9NZW5
# T5 sequence (Q9NZW5 125-219, limits assumed, looked up): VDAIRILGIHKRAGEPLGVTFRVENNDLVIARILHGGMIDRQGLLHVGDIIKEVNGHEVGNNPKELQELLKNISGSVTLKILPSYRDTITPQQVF
# GRID2IP_1, A4D2P6 = target: GRID2IP_1, A4D2P6
# Sequence of GRID2IP_1, A4D2P6 (A4D2P6 1-87): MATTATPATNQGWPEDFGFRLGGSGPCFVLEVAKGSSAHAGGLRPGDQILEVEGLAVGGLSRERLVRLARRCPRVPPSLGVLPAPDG
# TJP3_3, O95049 = target: T6, TJP3_3, O95049
# T6 sequence (O95049 375-456, limits assumed, looked up): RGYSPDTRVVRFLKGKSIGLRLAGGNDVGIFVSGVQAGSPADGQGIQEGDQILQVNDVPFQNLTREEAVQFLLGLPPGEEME
# SNTA1, Q13424 = target: T7, SNTA1, Q13424
# T7 sequence (Q13424 82-180, limits assumed, looked up): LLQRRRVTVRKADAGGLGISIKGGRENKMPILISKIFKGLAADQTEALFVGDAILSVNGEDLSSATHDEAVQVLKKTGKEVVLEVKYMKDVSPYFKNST
# GRID2IP_2, A4D2P6 = target: GRID2IP_2, A4D2P6
# Sequence of GRID2IP_2, A4D2P6 (A4D2P6 272-370): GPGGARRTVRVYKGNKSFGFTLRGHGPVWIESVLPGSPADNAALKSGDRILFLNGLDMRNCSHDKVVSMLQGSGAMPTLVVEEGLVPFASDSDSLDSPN
# GRIP2_7, Q9C0E4 = target: GRIP2_7, Q9C0E4
# Sequence of GRIP2_7, Q9C0E4 (Q9C0E4 934-1023): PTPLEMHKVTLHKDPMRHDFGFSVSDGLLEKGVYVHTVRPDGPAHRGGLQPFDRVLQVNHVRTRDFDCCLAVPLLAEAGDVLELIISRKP
# SNTB1, Q13884 = target: T8, SNTB1, Q13884
# T8 sequence (Q13884 107-205, limits assumed, looked up): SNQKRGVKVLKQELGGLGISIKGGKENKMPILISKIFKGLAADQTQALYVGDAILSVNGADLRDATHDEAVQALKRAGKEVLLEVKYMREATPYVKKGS
# SCRIB_1, Q14160 = target: SCRIB_1, Q14160
# Sequence of SCRIB_1, Q14160 (Q14160 718-814): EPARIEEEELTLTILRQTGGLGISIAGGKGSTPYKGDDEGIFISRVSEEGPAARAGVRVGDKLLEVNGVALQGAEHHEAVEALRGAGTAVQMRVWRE
# GRIP2_5, Q9C0E4 = target: GRIP2_5, Q9C0E4
# Sequence of GRIP2_5, Q9C0E4 (Q9C0E4 544-642): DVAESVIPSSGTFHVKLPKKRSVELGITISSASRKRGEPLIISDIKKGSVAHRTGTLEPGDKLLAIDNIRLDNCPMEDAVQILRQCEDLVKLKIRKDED
# DLG4_3, P78352 = target: DLG4_3, P78352
# Sequence of DLG4_3, P78352 (P78352 306-403): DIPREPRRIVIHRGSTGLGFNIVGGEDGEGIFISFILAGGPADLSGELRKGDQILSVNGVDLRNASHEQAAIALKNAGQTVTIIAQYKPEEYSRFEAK
# DFNB31_2, Q9P202 = target: T9, DFNB31_2, Q9P202
# T9 sequence (Q9P202 274-371, limits assumed, looked up): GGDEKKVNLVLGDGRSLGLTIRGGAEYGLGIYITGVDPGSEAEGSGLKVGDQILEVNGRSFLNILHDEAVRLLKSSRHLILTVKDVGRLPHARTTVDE
# FRMPD1, Q5SYB0 = target: T10, FRMPD1, Q5SYB0
# T10 sequence (Q5SYB0 52-145, limits assumed, looked up): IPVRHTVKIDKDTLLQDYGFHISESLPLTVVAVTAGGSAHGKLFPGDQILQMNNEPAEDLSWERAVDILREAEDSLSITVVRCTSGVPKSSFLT
# ARHGEF12, Q9NZN5-2 = target: ARHGEF12, Q9NZN5-2
# Sequence of ARHGEF12, Q9NZN5-2 (Q9NZN5 other isoform, or with tags, fused parts or gaps): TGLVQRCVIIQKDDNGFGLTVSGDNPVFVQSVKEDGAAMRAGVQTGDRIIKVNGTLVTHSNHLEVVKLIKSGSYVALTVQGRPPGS
# DLG4_1, P78352 = target: DLG4_1, P78352
# Sequence of DLG4_1, P78352 (P78352 62-152): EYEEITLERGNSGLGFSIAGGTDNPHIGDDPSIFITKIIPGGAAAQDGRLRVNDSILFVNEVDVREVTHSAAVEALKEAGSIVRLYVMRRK
# PDZRN3_1, Q9UPQ7 = target: T11, PDZRN3_1, Q9UPQ7
# T11 sequence (Q9UPQ7 244-349, limits assumed, looked up): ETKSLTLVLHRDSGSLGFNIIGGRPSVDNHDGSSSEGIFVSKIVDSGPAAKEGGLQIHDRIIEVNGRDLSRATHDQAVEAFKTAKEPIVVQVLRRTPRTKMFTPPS
# LNX1_1, Q8TBB1 = target: LNX1_1, Q8TBB1
# Sequence of LNX1_1, Q8TBB1 (Q8TBB1 261-371): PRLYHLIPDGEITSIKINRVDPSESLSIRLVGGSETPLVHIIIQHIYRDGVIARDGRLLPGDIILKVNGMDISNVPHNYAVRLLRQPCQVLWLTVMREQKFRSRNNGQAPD
# GRIP2_6, Q9C0E4 = target: GRIP2_6, Q9C0E4
# Sequence of GRIP2_6, Q9C0E4 (Q9C0E4 648-740): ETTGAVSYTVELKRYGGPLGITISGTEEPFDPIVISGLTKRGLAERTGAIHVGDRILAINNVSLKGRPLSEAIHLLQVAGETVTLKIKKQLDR
# [1] = plain residues with an end cap or a label only (N-terminal biotin on a linker: ado-ado)
# [2] = plain residues with an end cap or a label only (N-terminal biotin on a linker: ado-ado, ttds)
# [3] = plain residues with an end cap or a label only (N-terminal biotin on a linker: ttds)
# Sequence of MAGI2_2, Q86UL8 (Q86UL8 410-522): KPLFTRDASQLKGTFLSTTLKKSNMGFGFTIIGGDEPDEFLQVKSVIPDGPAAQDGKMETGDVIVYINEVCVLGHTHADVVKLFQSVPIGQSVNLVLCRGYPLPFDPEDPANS
binder,measurement,setting,value
"ELKAEDEVQI [DCHS2, Q6V1P9]",pKd,"MAGI2_2, Q86UL8; [1]",below the threshold
same,pKd,"TX1BP3, O14907; [1]",below the threshold
same,pKd,"MPP2, Q14168; [1]",below the threshold
same,pKd,"MAST2, Q6P0Q8; [1]",below the threshold
same,pKd,"LDB3, O75112; [1]",below the threshold
same,pKd,"HTRA3, P83110; [1]",below the threshold
same,pKd,"GIPC2, Q8TF65; [1]",below the threshold
same,pKd,"GRIP1_7, Q9Y3R0; [1]",below the threshold
same,pKd,"SCRIB_2, Q14160; [1]",below the threshold
same,pKd,"SCRIB_3, Q14160; [1]",below the threshold
same,pKd,"MPP6, Q9NZW5; [1]",below the threshold
same,pKd,"GRID2IP_1, A4D2P6; [1]",below the threshold
same,pKd,"TJP3_3, O95049; [1]",below the threshold
same,pKd,"SNTA1, Q13424; [1]",below the threshold
same,pKd,"GRID2IP_2, A4D2P6; [1]",below the threshold
same,pKd,"GRIP2_7, Q9C0E4; [1]",below the threshold
same,pKd,"SNTB1, Q13884; [1]",below the threshold
same,pKd,"SCRIB_1, Q14160; [1]",below the threshold
same,pKd,"GRIP2_5, Q9C0E4; [1]",below the threshold
same,pKd,"DLG4_3, P78352; [1]",below the threshold
same,pKd,"DFNB31_2, Q9P202; [1]",below the threshold
same,pKd,"FRMPD1, Q5SYB0; [1]",below the threshold
same,pKd,"ARHGEF12, Q9NZN5-2; [1]",below the threshold
same,pKd,"DLG4_1, P78352; [1]",below the threshold
same,pKd,"PDZRN3_1, Q9UPQ7; [1]",below the threshold
same,pKd,"LNX1_1, Q8TBB1; [1]",below the threshold
same,pKd,"GRIP2_6, Q9C0E4; [1]",below the threshold
"SNAKAVETDV [KCNA4, P22459]",pKd,"MAGI2_2, Q86UL8; [2]",below the threshold
same,pKd,"TX1BP3, O14907; [2]",4.49
same,pKd,"MPP2, Q14168; [2]",below the threshold
same,pKd,"MAST2, Q6P0Q8; [2]",5.18
same,pKd,"LDB3, O75112; [2]",below the threshold
same,pKd,"HTRA3, P83110; [2]",below the threshold
same,pKd,"GIPC2, Q8TF65; [2]",below the threshold
same,pKd,"GRIP1_7, Q9Y3R0; [2]",below the threshold
same,pKd,"SCRIB_2, Q14160; [2]",4.67
same,pKd,"SCRIB_3, Q14160; [2]",4.8
same,pKd,"MPP6, Q9NZW5; [2]",below the threshold
same,pKd,"GRID2IP_1, A4D2P6; [2]",below the threshold
same,pKd,"TJP3_3, O95049; [2]",below the threshold
same,pKd,"SNTA1, Q13424; [2]",4.7
same,pKd,"GRID2IP_2, A4D2P6; [2]",below the threshold
same,pKd,"GRIP2_7, Q9C0E4; [2]",below the threshold
same,pKd,"SNTB1, Q13884; [2]",4.71
same,pKd,"SCRIB_1, Q14160; [2]",below the threshold
same,pKd,"GRIP2_5, Q9C0E4; [2]",below the threshold
same,pKd,"DLG4_3, P78352; [2]",below the threshold
same,pKd,"DFNB31_2, Q9P202; [2]",below the threshold
same,pKd,"FRMPD1, Q5SYB0; [2]",below the threshold
same,pKd,"ARHGEF12, Q9NZN5-2; [2]",3.88
same,pKd,"DLG4_1, P78352; [2]",4.67
same,pKd,"PDZRN3_1, Q9UPQ7; [2]",below the threshold
same,pKd,"LNX1_1, Q8TBB1; [2]",3.77
same,pKd,"GRIP2_6, Q9C0E4; [2]",below the threshold
"PPRQRSETQV [HPV82-E6, Q9IR59]",pKd,"MAGI2_2, Q86UL8; [3]",5.89
same,pKd,"TX1BP3, O14907; [3]",4.14
same,pKd,"MPP2, Q14168; [3]",below the threshold
same,pKd,"MAST2, Q6P0Q8; [3]",5.18
same,pKd,"LDB3, O75112; [3]",below the threshold
same,pKd,"HTRA3, P83110; [3]",below the threshold
same,pKd,"GIPC2, Q8TF65; [3]",below the threshold
same,pKd,"GRIP1_7, Q9Y3R0; [3]",below the threshold
same,pKd,"SCRIB_2, Q14160; [3]",4.26
same,pKd,"SCRIB_3, Q14160; [3]",4.05
same,pKd,"MPP6, Q9NZW5; [3]",below the threshold
same,pKd,"GRID2IP_1, A4D2P6; [3]",below the threshold
same,pKd,"TJP3_3, O95049; [3]",below the threshold
same,pKd,"SNTA1, Q13424; [3]",4.15
same,pKd,"GRID2IP_2, A4D2P6; [3]",below the threshold
same,pKd,"GRIP2_7, Q9C0E4; [3]",below the threshold
same,pKd,"SNTB1, Q13884; [3]",4.05
same,pKd,"SCRIB_1, Q14160; [3]",4.12
same,pKd,"GRIP2_5, Q9C0E4; [3]",below the threshold
same,pKd,"DLG4_3, P78352; [3]",4.43
same,pKd,"DFNB31_2, Q9P202; [3]",below the threshold
same,pKd,"FRMPD1, Q5SYB0; [3]",below the threshold
same,pKd,"ARHGEF12, Q9NZN5-2; [3]",3.72
same,pKd,"DLG4_1, P78352; [3]",4.65
same,pKd,"PDZRN3_1, Q9UPQ7; [3]",3.81
same,pKd,"LNX1_1, Q8TBB1; [3]",below the threshold
same,pKd,"GRIP2_6, Q9C0E4; [3]",below the threshold

# From PMC9482650, “Quantitative fragmentomics allow affinity mapping of interactomes” (Nature Communications, 2022)
